The text below walks through data of the Immune Epitope Database (IEDB).

For orientation: Kd means the constant that tells how readily two partners part at equilibrium. The low end stands for tighter binding, the high end for weaker binding.

What all share (assay): IEDB peptide-MHC binding, purified MHC/direct/fluorescence; filed as Kd, often an IC50 or EC50 that approximates it; ≥ and ≤ were set here for values at or beyond the usual limits of such assays
For test [1], the target named is HLA-A*01:01.
The target in test [2] is HLA-A*02:01.
Test [3] has as its target HLA-A*03:01.
Test [4] has as its target HLA-A*11:01.
For test [5], the target named is HLA-A*24:02.
In test [6] the target is HLA-A*26:01.
Test [7] concerns the target HLA-A*31:01.
The target of test [8] is HLA-A*69:01.
Test [9] addresses HLA-B*07:02.
For test [10], the target named is HLA-B*08:01.
The target of test [11] is HLA-B*15:01.
The target in test [12] is HLA-B*15:09.
The target of test [13] is HLA-B*27:05.
Test [14] deals with HLA-B*40:01.
In test [15] the target is HLA-B*46:01.
For test [16], the target named is HLA-B*58:01.
The target of test [17] is HLA-B*48:01. To be noted: source organism: Brucella suis.
The target of test [18] is HLA-B*73:01.
Test [19] addresses HLA-A*30:01. To be noted: source organism: Vibrio parahaemolyticus.
For test [20], the target named is HLA-B*44:02.
In test [21] the target is HLA-B*08:02. To be noted: source organism: Giardia lamblia ATCC 50803.
The target in test [22] is HLA-A*02:03.
The target of test [23] is HLA-A*02:11.
Test [24] addresses HLA-A*02:12.
In test [25] the target is HLA-A*02:16.
The target in test [26] is HLA-A*02:19.
For test [27], the target named is HLA-A*24:03.
In test [28] the target is HLA-B*18:01.
The target of test [29] is HLA-B*27:03.
Test [30] deals with HLA-B*39:01. Particulars: source organism: Vibrio parahaemolyticus AQ3810.
Test [31] concerns the target HLA-B*51:01.
Test [32] concerns the target HLA-B*57:01.
Test [33] concerns the target HLA-A*23:01. Particulars: source organism: Salmonella enterica subsp. enterica serovar Berta.
For test [34], the target named is HLA-A*29:02. Particulars: source organism: Salmonella enterica subsp. enterica serovar Berta.
The target in test [35] is HLA-A*68:02. To be noted: source organism: Salmonella enterica subsp. enterica serovar Berta.
Test [36] addresses HLA-B*15:17. To be noted: source organism: Salmonella enterica subsp. enterica serovar Berta.
Setting [37] is: source organism: Influenza A virus (A/duck/Mongolia/47/2001(H7N1)).
Setting [38] is: source organism: Influenza A virus(A/swine/Henan/3/2004(H9N2)).
Setting [39] is: source organism: Vibrio parahaemolyticus.
Where [40] appears, read: source organism: Vibrio parahaemolyticus AQ3810.
Where [41] appears, read: source organism: Giardia lamblia ATCC 50803.
Setting [42] is: source organism: Salmonella enterica subsp. enterica serovar Berta.

On to NESGRLIDF, for which the Kd in test [1] (setting [37]), in test [2] (setting [37]), in [3] (setting [37]), in test [4] (setting [37]), in [5] (setting [37]) and in test [6] (setting [38]) was at least 20 µM in each case. Besides, the Kd in test [7] (setting [37]), in test [8] (setting [37]), in test [9] (setting [37]), in [10] (setting [37]), in [11] (setting [37]) and in [12] (setting [38]) was at least 20 µM each time. Moreover, the Kd in test [13] (setting [37]) is at least 20 µM; in test [14] (source organism: Influenza A virus (A/Puerto Rico/8/34/Mount Sinai(H1N1))) it was at least 5 µM; in test [15] (setting [37]), at least 20 µM; in [16] (setting [37]) it was at least 20 µM.
For RRTKLPLTK, the results for the Kd in [13] (source organism: Brucella suis), in [17] and in [18] (source organism: Brucella suis 1330) were 0.0792 µM, at least 20 µM and at least 20 µM, respectively.
In the case of GRNSRFPDK, the Kd in test [1] (setting [39]) is at least 20 µM; in test [2] (setting [39]), at least 20 µM; in test [3] (setting [39]), at least 20 µM; in test [6] (setting [39]) it was at least 20 µM; in test [19], at least 5 µM; in [7] (setting [39]), at least 20 µM. Moreover, the Kd in test [8] (setting [39]) is at least 20 µM; in [9] (setting [39]), at least 20 µM; in [10] (setting [39]), at least 20 µM; in [11] (setting [39]), at least 20 µM; in test [13] (setting [39]) it was 1.04 µM; in test [14] (setting [39]) it was at least 20 µM. Besides, the equilibrium dissociation constant (Kd) in test [20] (setting [39]), in [16] (setting [39]) and in test [18] (setting [40]) was at least 20 µM in each case.
Turning to DEKPKVMEG, the Kd in [1] (setting [41]), in test [2] (setting [41]), in test [3] (setting [41]), in [4] (setting [41]), in [5] (setting [41]) and in test [7] (setting [41]) was at least 20 µM throughout. The Kd in [8] (setting [41]), in test [9] (setting [41]), in test [21], in [11] (setting [41]), in test [12] (setting [41]) and in [13] (setting [41]) was at least 20 µM each time. For the same sequence, the Kd in test [14] (setting [41]), in test [20] (setting [41]) and in [16] (setting [41]) was at least 20 µM in each case.
In the case of EPFLVQFWI, the Kd in test [2] (setting [40]), in [22] (setting [40]), in test [23] (setting [40]), in test [24] (setting [40]), in [25] (setting [40]) and in [26] (setting [40]) was at least 20 µM throughout. Moreover, the Kd in [3] (setting [40]), in [27] (setting [40]), in test [6] (setting [40]), in test [11] (setting [40]), in test [28] (setting [40]) and in [29] (setting [40]) was at least 20 µM each time. Moreover, the dissociation constant Kd in [30] is at least 20 µM; in test [15] (setting [40]), at least 20 µM; in test [31] (setting [40]) it was 0.193 µM; in test [32] (setting [40]), at least 20 µM.
For HQDDGQPRL, the Kd in test [2] (setting [42]), in [22] (setting [42]), in test [23] (setting [42]), in [24] (setting [42]), in test [25] (setting [42]) and in test [26] (setting [42]) was at least 20 µM in each case. Moreover, the Kd in test [3] (setting [42]), in test [33], in test [27] (setting [42]), in test [6] (setting [42]), in [34] and in test [35] was at least 20 µM throughout. The Kd in test [8] (setting [42]), in test [11] (setting [42]), in test [36], in [28] (setting [42]), in test [29] (setting [42]) and in [15] (setting [42]) was at least 20 µM each time. Besides, the Kd in test [31] (setting [42]) and in test [32] (setting [42]) was at least 20 µM in each case.
